Here are results for one protein from ChEMBL document CHEMBL1132501, “Synthesis and anti-Helicobacter pylori activity of FR182024, a new cephem derivative” (1999).

Substrate in series [1]: O=C(Cc1cccs1)N[C@@H]1C(=O)N2C(C(=O)[O-])=C(C[n+]3ccccc3)CS[C@H]12
Description: The compound was tested against Bacteroides fragilis FP784 and its stability towards beta-lactamase was evaluated. Format: functional.

Substrate in series [2]: O=C(Cc1cccs1)N[C@@H]1C(=O)N2C(C(=O)[O-])=C(C[n+]3ccccc3)CS[C@H]12
Description: The compound was tested against Bacteroides fragilis FP784 and its stability towards beta-lactamase relative to cephaloridine was evaluated. Format: functional.

B1: Beta-lactamase (Enterobacter cloacae), P05364 (protein)
chain: MMRKSLCCALLLGISCSALATPVSEKQLAEVVANTITPLMKAQSVPGMAVAVIYQGKPHYYTFGKADIAANKPVTPQTLFELGSISKTFTGVLGGDAIARGEISLDDAVTRYWPQLTGKQWQGIRMLDLATYTAGGLPLQVPDEVTDNASLLRFYQNWQPQWKPGTTRLYANASIGLFGALAVKPSGMPYEQAMTTRVLKPLKLDHTWINVPKAEEAHYAWGYRDGKAVRVSPGMLDAQAYGVKTNVQDMANWVMANMAPENVADASLKQGIALAQSRYWRIGSMYQGLGWEMLNWPVEANTVVEGSDSKVALAPLPVAEVNPPAPPVKASWVHKTGSTGGFGSYVAFIPEKQIGIVMLANTSYPNPARVEAAYHILEALQ
On to B1, for which the Km in series [1] turned out to be 31.7 µg/mL. Besides, the Vmax in series [2] was found to be 1.

What is called Km is the concentration of substrate that gives half-maximal velocity.
